This is an account of results in US20230374534A1 (INDUSTRY ACADEMIC COOPERATION FOUNDATION GYEONGSANG …, published 2023).

Experiment [1] addresses T1, YC-CBF1 (CBF1 fused to the C-terminal fragment of YFP) (Arabidopsis thaliana, UniProt P93835 1-213).
T1 construct: BiFC construct expressed in Nicotiana benthamiana leaves; also called YC-CBFs; not shown: C-terminal fragment of YFP (YC)
Description: BiFC in Nicotiana benthamiana leaves at 4 °C (FIG. 6D). Here is the method: Interaction between Trx-h2 and CBFs under specific conditions was analyzed using the BiFC assay. Trx-h2 and CBFs were cloned individually into the gateway BiFC-binary vector, pDONR221, to generate pDONR221: Trx-h2 and pDONR221: CBF plasmids, respectively. The Trx-h2-YN plasmid was generated by fusing Trx-h2 with the N-terminal fragment of YFP (YN), while the YC-CBF plasmids were constructed by fusing each of the three CBFs with the C-terminal fragment of YFP (YC). These plasmids were introduced into A. tumefaciens strain GV3101, and the transformed cells were used to infiltrate the leaves of 4-week-old N. benthamiana plants. These plants were incubated at 26° C. for 2 days and then exposed to 4° C. for 6 h. Fluorescence signals generated by YFP were analyzed under a confocal microscope using the FV10-ASW 3.1 software.

Experiment [2] addresses T2, CBF1-Myc (from CBF1-Myc^OE Arabidopsis plants) (Arabidopsis thaliana, UniProt P93835 1-213).
T2 construct: Overexpressed in Arabidopsis under the CaMV 35S promoter; The tag is placed C-terminal because of the name CBF1-Myc; also called CBF-Myc; CBFs-Myc; not shown: Myc tag
Kind of experiment: anti-Myc immunoprecipitation from CBF1-Myc^OE plants (4 °C, 6 h), then MALDI-TOF/TOF mass spectrometry. The protocol: To identify the interacting partners of CBF1 in Arabidopsis, total proteins (100 mg) were extracted from 2-week-old CBF1-Myc^OE seedlings exposed to 4° C. for 6 h, and immunoprecipitated using an anti-Myc agarose (Sigma-Aldrich, St. Louis, MO, USA). The CBF1-My c-interacting proteins were washed three times at 4° C. with a buffer containing 50 mM Tris-HCl (pH 7.5), 150 mM NaCl, 1 mM EDTA, 1 mM DTT, and 0.1% NP40. The purified proteins were mixed with SDS-PAGE loading dye, heated at 90° C. for 5 min, and separated by SDS-PAGE. Proteins were identified by matrix assisted laser desorption/ionization-time of flight (MALDI-TOF)/TOF-mass spectrometry.

T1 sequence (P93835 whole entry, the tested form may be a part): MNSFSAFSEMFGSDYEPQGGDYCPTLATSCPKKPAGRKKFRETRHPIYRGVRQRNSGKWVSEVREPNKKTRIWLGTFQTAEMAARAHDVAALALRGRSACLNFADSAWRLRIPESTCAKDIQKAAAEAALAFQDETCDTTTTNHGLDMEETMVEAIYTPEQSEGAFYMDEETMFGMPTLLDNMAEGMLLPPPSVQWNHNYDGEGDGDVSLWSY
T2 sequence (P93835 whole entry): as the sequence (P93835 whole entry, the tested form may be a part) above

B1: Trx-h3 (control) in the BiFC assay (enzyme, Arabidopsis, UniProt Q42403 2-118, looked up)
chain: AAEGEVIACHTVEDWTEKLKAANESKKLIVIDFTATWCPPCRFIAPVFADLAKKHLDVVFFKVDVDELNTVAEEFKVQAMPTFIFMKEGEIKETVVGAAKEEIIANLEKHKTVVAAA
notes: BiFC control; The YFP fragment fused to it is not described
Turning to B1, the binding result in experiment [1] was “no binding”.

B2: Trx-h2, endogenous protein in Arabidopsis plants (enzyme)
chain: GGALSTVFGSGEDATAAGTESEPSRVLKFSSSARWQLHFNEIKESNKLLVVDFSASWCGPCRMIEPAIHAMADKFNDVDFVKLDVDELPDVAKEFNVTAMPTFVLVKRGKEIERIIGAKKDELEKKVSKLRA
modifications: myristoylated at Gly2 at 22 °C; demyristoylated at 4 °C
notes: Native Trx-h2 that co-precipitated with CBF-Myc from plant extracts (IP/mass spectrometry and Co-IP); also called thioredoxin h2
Regarding B2, the binding result in experiment [2] is on record as “binds”.
